PMC4576506

Molecular target: recombinant human glycine receptor α1 subunit (hGlyRα1) homopentamer, detergent solubilized (human) (UniProt P23415)
Assay: SEC

A stoichiometry N of 5 was found for “recombinant human glycine receptor α1 subunit (hGlyRα1) homopentamer, detergent solubilized (from UniProt P23415-2 29-449)” in this work.
